Assay [1] concerns the target T1, SARS-CoV-2 spike glycoprotein ectodomain (prefusion-stabilized, trimeric) (SARS-CoV-2, UniProt P0DTC2 14-1208).
T1 construct: range 1-1208; also called spike protein; Spike ectodomain
The assay can be described thus: ITC, Spike in the cell, H11-H4 in the syringe. In general terms: ITC needs no label: the signal is the heat of the interaction.

For assay [2], the target named is T1, SARS-CoV-2 spike glycoprotein …. Put plainly: ITC, nanobody titrated into trimeric Spike, 1:1 nanobody:monomer.
The target is the same in assay [3].
For assay [4] the target is unchanged. The source holds these as a separate data set.

Like-named read-outs stand apart in the source and are kept apart here.

Results on two molecules are retold here after patent US20230348572A1 (ROSALIND FRANKLIN INSTITUTE, published 2023).

By Kd is commonly meant the constant that tells how readily two partners part at equilibrium. Low readings indicate higher affinity, high ones lower affinity.

B1: NbRBD_H11-H4 (VHH)
VHH: QVQLVESGGGLMQAGGSLRLSCAVSGRTFSTAAMGWFRQAPGKEREFVAAIRWSGGSAYYADSVKGRFTISRDKAKNTVYLQMNSLKYEDTAVYYCAQTHYVSYLLSDYATWPYDYWGQGTQVTVSS
notes: also called nanobody H11-H4
In assay [1], B1 yielded a ΔH of -73 kJmol-1 and a ΔS of -103 Jmol-1K-1. Further, the Kd in assay [2] was determined as 44 nM. In assay [3], this molecule came in with a ΔH of -74 kJmol-1 and a ΔS of -107 Jmol-1K-1.

B2: NbRBD_H11-D4 (VHH)
VHH: QVQLVESGGGLMQAGGSLRLSCAVSGRTFSTAAMGWFRQAPGKEREFVAAIRWSGGSAYYADSVKGRFTISRDKAKNTVYLQMNSLKYEDTAVYYCARTENVRSLLSDYATWPYDYWGQGTQVTVSS
notes: also called nanobody H11-D4
In assay [4], B2 registered a ΔH of -81.2 kJmol-1 and a ΔS of -136 Jmol-1K-1. Also, the Kd in assay [2] is 79 nM.
